Results on 3 molecules are retold here after article PMC3808318, “A type III ACC synthase, ACS7, is involved in root gravitropism in Arabidopsis thaliana” (Journal of Experimental Botany, 2013).

Positions count from the first letter of the chain named.

The target in experiment [1] is T1, AtCDPK16 (G-AtCDPK16-6His) (Arabidopsis thaliana, UniProt Q7XJR9, S274A/S541A).
T1 construct: gene CPK16; recombinant from E. coli, N-terminal G (GST) and C-terminal 6His tags, about 100 kDa with tags
T1 sequence (Q7XJR9 1-571 S274A/S541A): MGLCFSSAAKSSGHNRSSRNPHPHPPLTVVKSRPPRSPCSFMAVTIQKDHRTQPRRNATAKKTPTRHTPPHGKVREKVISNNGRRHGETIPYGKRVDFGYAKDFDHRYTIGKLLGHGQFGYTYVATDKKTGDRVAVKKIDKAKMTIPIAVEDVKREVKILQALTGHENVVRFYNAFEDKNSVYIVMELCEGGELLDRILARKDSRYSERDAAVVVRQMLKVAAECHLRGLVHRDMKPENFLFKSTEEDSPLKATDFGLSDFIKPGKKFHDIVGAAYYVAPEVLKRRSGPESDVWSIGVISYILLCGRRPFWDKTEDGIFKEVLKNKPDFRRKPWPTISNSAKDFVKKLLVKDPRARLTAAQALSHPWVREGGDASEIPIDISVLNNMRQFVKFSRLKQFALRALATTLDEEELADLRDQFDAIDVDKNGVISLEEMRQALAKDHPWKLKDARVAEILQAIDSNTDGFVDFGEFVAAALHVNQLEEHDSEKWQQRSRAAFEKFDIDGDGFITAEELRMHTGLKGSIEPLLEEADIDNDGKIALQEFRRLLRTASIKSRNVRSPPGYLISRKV
Description: in vitro kinase assay, […] autoradiography. The format is biochemical. The settings on record: 50 μM ATP spiked with [γ-32P]ATP, labelled compound; AtACS7 fusion protein and peptides as phosphoacceptors; room temperature, 15 min.

Experiment [2] has as its target T2, AtCDPK16 (G-AtCDPK16-6His) (Arabidopsis thaliana, UniProt Q7XJR9).
T2 construct: gene CPK16; recombinant from E. coli, N-terminal G (GST) and C-terminal 6His tags, about 100 kDa with tags
T2 sequence (Q7XJR9 1-571): T1 sequence (Q7XJR9 1-571 S274A/S541A) with A274S, A541S
In words: in vitro kinase assay, […] autoradiography. The experiment is classed as biochemical. The settings on record: 50 μM ATP spiked with [γ-32P]ATP, labelled compound; 6His-SUMO-AtACS7 as phosphoacceptor; Ca2+ dependent (shown with peptides P5-2 and P11-2); room temperature, 15 min.

The target of the next experiment is 14-3-3ω (UniProt Q01525). Description: quartz crystal microbalance (QCM). As to conditions: reference: untreated 6His-SUMO-ACS7; sites S216,T296,S299.
Experiment [3] has as its target T3, phosphorylated 6His-SUMO–ACS7 (phosphorylated by CDPK16 in vitro in advance) (Arabidopsis thaliana, UniProt Q9STR4 1-447, phosphorylated by CDPK16 in vitro; the sites that the paper identifies with fusion peptides are Ser216, Thr296 and Ser299).
T3 construct: 1-aminocyclopropane-1-carboxylate synthase 7 (AtACS7), Arabidopsis thaliana; the full-length ACS7 recombinant protein; source: E. coli, purified (Ni-NTA), then phosphorylated by CDPK16 in vitro
T3 sequence (looked up): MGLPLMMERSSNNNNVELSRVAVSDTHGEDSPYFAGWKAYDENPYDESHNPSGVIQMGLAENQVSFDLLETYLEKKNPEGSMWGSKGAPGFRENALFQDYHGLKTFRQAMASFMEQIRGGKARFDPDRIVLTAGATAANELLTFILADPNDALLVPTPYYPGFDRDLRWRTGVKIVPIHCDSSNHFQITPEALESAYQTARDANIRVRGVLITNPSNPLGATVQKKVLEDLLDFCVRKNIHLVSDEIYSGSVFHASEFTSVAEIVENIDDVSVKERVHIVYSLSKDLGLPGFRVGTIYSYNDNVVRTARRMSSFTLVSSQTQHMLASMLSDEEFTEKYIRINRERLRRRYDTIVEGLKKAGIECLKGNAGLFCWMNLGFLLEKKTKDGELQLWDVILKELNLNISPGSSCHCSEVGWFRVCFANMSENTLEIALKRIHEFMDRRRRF
In words: quartz crystal microbalance (QCM); AFFINIX QN μ, PBS buffer; results: G-14-3-3ω coated on the sensor and 6His-SUMO–ACS7 injected (the methods tell the reverse order). As to conditions: both partners purified.

Experiment [4] addresses T4, 6His-SUMO–AtACS7 recombinant protein (Arabidopsis thaliana, UniProt Q9STR4 1-447).
T4 construct: 1-aminocyclopropane-1-carboxylate synthase 7 (AtACS7), Arabidopsis thaliana; called the full-length ACS7 recombinant protein; The printed name puts 6His and SUMO before ACS7; also called 6His-SUMO–ACS7; SUMO–ACS7; source: E. coli, purified (Ni-NTA)
T4 sequence (looked up): T3 sequence (looked up)
Described as above. As to conditions: both partners purified.

On to `Nc1ncnc2c1ncn2[C@@H]1O[C@H](COP(=O)(O)OP(=O)(O)OP(=O)(O)O)[C@@H](O)[C@H]1O` [ATP], for which the “in vitro kinase assay, 32P autoradiography” value in experiment [1] is given as “autophosphorylation of the mutated recombinant protein (G-CDPK16-6His MT) was greatly reduced”; in experiment [2], “CDPK16 can phosphorylate the recombinant protein 6His-SUMO–AtACS7 in vitro”.

As to “AtACS7 (ACS7, type III ACC synthase) (from UniProt Q9STR4) 6His-SUMO-ACS7 phosphorylated by CDPK16 in vitro”, the KD entry with 14-3-3ω is “same; reference 9.29±1.99×10–9”.

B1: G-14-3-3ω recombinant protein (GST-tagged 14-3-3ω) (natural protein, Arabidopsis, UniProt Q01525 1-259, looked up)
chain: MASGREEFVYMAKLAEQAERYEEMVEFMEKVSAAVDGDELTVEERNLLSVAYKNVIGARRASWRIISSIEQKEESRGNDDHVTAIREYRSKIETELSGICDGILKLLDSRLIPAAASGDSKVFYLKMKGDYHRYLAEFKTGQERKDAAEHTLAAYKSAQDIANAELAPTHPIRLGLALNFSVFYYEILNSPDRACNLAKQAFDEAIAELDTLGEESYKDSTLIMQLLRDNLTLWTSDMQDDAADEIKEAAAPKPTEEQQ
notes: 14-3-3ω (14-3-3 omega), Arabidopsis; The printed name puts G (GST) before 14-3-3ω; also called 14-3-3ω protein; source: E. coli, purified (GST beads, glutathione elution)
B1: the dissociation constant Kd (in general, the concentration at which binding is half-saturated) in experiment [3] worked out at 5.05 nM; in experiment [4] it was 9.29 nM.
